Test results: patent US6399747 (Amgen, dated 2002)

Legend:
[1] = target: T1, mPAL (amino acids 11 to 648) expressed in 293T cells from pcDNA3.1-mPAL (mouse, UniProt Q9Z179 11-648); experiment: GST pull-down from 293T-mPAL lysate, anti-mPAL immunoblot
T1 sequence: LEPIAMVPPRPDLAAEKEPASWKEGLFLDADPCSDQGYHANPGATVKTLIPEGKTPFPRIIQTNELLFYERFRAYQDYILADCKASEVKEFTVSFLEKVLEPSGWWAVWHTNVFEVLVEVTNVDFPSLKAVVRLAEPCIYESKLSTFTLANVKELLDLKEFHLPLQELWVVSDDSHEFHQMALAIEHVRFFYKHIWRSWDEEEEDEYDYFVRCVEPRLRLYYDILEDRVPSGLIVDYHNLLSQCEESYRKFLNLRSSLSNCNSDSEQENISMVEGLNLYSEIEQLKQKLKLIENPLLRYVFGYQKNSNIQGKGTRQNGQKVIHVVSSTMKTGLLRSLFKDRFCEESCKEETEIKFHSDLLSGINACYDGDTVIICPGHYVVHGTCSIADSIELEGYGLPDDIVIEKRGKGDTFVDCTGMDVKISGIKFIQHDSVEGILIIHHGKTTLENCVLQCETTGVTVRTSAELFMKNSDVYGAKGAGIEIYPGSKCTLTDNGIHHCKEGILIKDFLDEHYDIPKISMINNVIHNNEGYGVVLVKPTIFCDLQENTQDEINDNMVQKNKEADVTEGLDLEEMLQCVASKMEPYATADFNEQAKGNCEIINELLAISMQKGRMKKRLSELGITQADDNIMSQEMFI
Protocol: To examine the specificity of the mPAL-Shc SH2 interaction, a series of GST-SH2 fusion proteins generated from several signal transduction molecules were tested for their ability to precipitate mPAL. A panel of GST-SH2 fusion proteins generated from several signal transduction molecules (Shc PTB domain, Blaikie et al., *J. Biol. Chem.* 269:23031–32034(1994), Shc SH2 domain, Pellici et al., *Cell* 70:93–104 (1992), Grb2 SH2 domain, Rozakis-Adcock et al., *Nature* 360:689–692 (1992), Vav SH2 domain Margolis et al., *Nature* 356: 71–74 (1992), N-terminal SH2 domain of ras-GAP, N-terminal SH2 domain (p85-N) and C-terminal SH2 domain (p85-C) of p85 subunit of PI-3 kinase, N-terminal SH2 domain (PLCγ-N), and C-terminal SH2 domain (PLCγ-C) of phospholipase C-γ1 Anderson et al., *Science* 250:979–982 (1992), Ellis et al., *Mol. Cell Biol.* 12:991–997(1992), and Nck SH2 domain, Lehman et al., *Nucl. Acids Res.* 18:1048 (1990), were immobilized on glutathione-Sepharose beads.

[2] = target: T2, mPAL cDNA clone from the yeast two-hybrid screen, fused to the GAL4 transcription activation domain (yeast; mouse, UniProt Q9Z179 16-668); experiment: yeast two-hybrid
T2 construct: Eleven clones were isolated (3 from T-cell, 8 from embryo library); As an in-frame fusion it may start at residue 11; also called GAL4-cDNA fusion; GAL4-TA fusion
T2 sequence: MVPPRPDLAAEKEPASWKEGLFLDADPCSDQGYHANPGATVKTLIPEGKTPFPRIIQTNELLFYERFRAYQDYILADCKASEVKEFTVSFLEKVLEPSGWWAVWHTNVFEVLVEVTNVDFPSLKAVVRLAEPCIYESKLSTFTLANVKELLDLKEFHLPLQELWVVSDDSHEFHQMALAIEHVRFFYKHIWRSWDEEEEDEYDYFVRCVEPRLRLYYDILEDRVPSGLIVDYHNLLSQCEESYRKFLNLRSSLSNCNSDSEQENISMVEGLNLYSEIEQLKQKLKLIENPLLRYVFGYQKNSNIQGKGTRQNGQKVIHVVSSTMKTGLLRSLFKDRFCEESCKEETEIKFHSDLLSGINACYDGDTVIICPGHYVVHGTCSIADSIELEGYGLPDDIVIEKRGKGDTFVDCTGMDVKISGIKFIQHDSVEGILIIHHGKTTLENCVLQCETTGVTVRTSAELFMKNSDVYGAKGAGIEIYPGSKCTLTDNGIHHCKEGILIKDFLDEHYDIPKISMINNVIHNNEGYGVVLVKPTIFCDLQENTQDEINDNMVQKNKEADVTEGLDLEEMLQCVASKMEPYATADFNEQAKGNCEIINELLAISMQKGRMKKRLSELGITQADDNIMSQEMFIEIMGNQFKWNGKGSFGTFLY

B1: GST-Nck SH2 (amino acids 281-377 of human Nck) (other, UniProt P16333 281-377, looked up)
chain: PWYYGKVTRHQAEMALNERGHEGDFLIRDSESSPNDFSVSLKAQGKNKHFKVQLKETVYCIGQRKFSTMEELVEHYKKAPIFTSEQGEKLYLVKHLS
notes: range 281-377; not shown: glutathione S-transferase (GST)
[1]
  binding result: no binding

B2: PTB domain of p52 Shc (yeast two-hybrid construct) (other, UniProt P29353-2 1-209, looked up)
chain: MNKLSGGGGRRTRVEGGQLGGEEWTRHGSFVNKPTRGWLHPNDKVMGPGVSYLVRYMGCVEVLQSMRALDFNTRTQVTREAISLVCEAVPGAKGATRRRKPCSRPLSSILGRSNLKFAGMPITLTVSTSSLNLMAADCKQIIANHHMQSISFASGGDPDTAEYVAYVAKDPVNQRACHILECPEGLAQDVISTIGQAFELRFKQYLRNP
notes: domain: PTB; Construct is not described
[2]
  binding result: no binding

B3: CH1 domain of p52 Shc (yeast two-hybrid construct) (other, UniProt P29353-2 230-377, looked up)
chain: EEEEPPDHQYYNDFPGKEPPLGGVVDMRLREGAAPGAARPTAPNAQTPSHLGATLPVGQPVGGDPEVRKQMPPPPPCPGRELFDDPSYVNVQNLDKARQAVGGAGPPNPAINGSAPRDLFDMKPFEDALRVPPPPQSVSMAEQLRGEP
notes: domain: CH1; Construct is not described
[2]
  binding result: no binding
